Experimental data as given in IntAct's records for PubMed 17006543.

B1: Beta-adrenergic receptor kinase 1 (Homo sapiens), P25098 (parent)
chain: MADLEAVLADVSYLMAMEKSKATPAARASKKILLPEPSIRSVMQKYLEDRGEVTFEKIFSQKLGYLLFRDFCLNHLEEARPLVEFYEEIKKYEKLETEEERVARSREIFDSYIMKELLACSHPFSKSATEHVQGHLGKKQVPPDLFQPYIEEICQNLRGDVFQKFIESDKFTRFCQWKNVELNIHLTMNDFSVHRIIGRGGFGEVYGCRKADTGKMYAMKCLDKKRIKMKQGETLALNERIMLSLVSTGDCPFIVCMSYAFHTPDKLSFILDLMNGGDLHYHLSQHGVFSEADMRFYAAEIILGLEHMHNRFVVYRDLKPANILLDEHGHVRISDLGLACDFSKKKPHASVGTHGYMAPEVLQKGVAYDSSADWFSLGCMLFKLLRGHSPFRQHKTKDKHEIDRMTLTMAVELPDSFSPELRSLLEGLLQRDVNRRLGCLGRGAQEVKESPFFRSLDWQMVFLQKYPPPLIPPRGEVNAADAFDIGSFDEEDTKGIKLLDSDQELYRNFPLTISERWQQEVAETVFDTINAETDRLEARKKAKNKQLGHEEDYALGKDCIMHGYMSKMGNPFLTQWQRRYFYLFPNRLEWRGEGEAPQSLLTMEEIQSVEETQIKERKCLLLKIRGGKQFILQCDSDPELVQWKKELRDAYREAQQLVQRVPKMKNKPRSPVVELSKVPLVQRGSANGL

Variants of: B1
Conditions: with ubc_human UBC

Effect of a mutation on the interaction, decreasing interaction:
K19R
K30R
K31R
